Test results reported in the RNAGym collection of RNA variant scans (doi:10.7554/elife.80360).

B1: CPEB3 Ribozyme (parent)
chain: GGGGGCCACAGCAGAAGCGUUCACGUCGCGGCCCCUGUCAGAUUCUGGUGAAUCUGCGAAUUCUGCUGU

Variants of: B1
Assay: self-cleavage, relative activity (ratio to wild type); higher = more cleavage; co-transcriptional

Variant | self-cleavage
GGGGGCCACAGCAGAAGCGUUCACGUCGCGGCCCCUGUCAGAUUCUGGUGAAUCUGCUAAUUGUGCUGU [G58U C63G] | 1.01
GGGGGCCACAGCAGAAGCGUUCACGUCGCGGCCCCUGUCAGAUUCUGGUGAAUCUGCUAAUUUUGCUGU [G58U C63U] | 1.03
GGGGGCCACAGCAGAAGCGUUCACGUCGCGGCCCCUGUCAGAUUCUGGUGAAUCUGCUAAUUCUGAUGU [G58U C66A] | 0.928
GGGGGCCACAGCAGAAGCGUUCACGUCGCGGCCCCUGUCAGAUUCUGGUGAAUCUGCUAAUUCUGUUGU [G58U C66U] | 1.02
GGGGGCCACAGCAGAAGCGUUCACGUCGCGGCCCCUGUCAGAUUCUGGUGAAUCUGCUAAUUCUCCUGU [G58U G65C] | 0.863
GGGGGCCACAGCAGAAGCGUUCACGUCGCGGCCCCUGUCAGAUUCUGGUGAAUCUGCUAAUUCUGCUAU [G58U G68A] | 0.993
GGGGGCCACAGCAGAAGCGUUCACGUCGCGGCCCCUGUCAGAUUCUGGUGAAUCUGCUAAUUCUGCUCU [G58U G68C] | 1.03
GGGGGCCACAGCAGAAGCGUUCACGUCGCGGCCCCUGUCAGAUUCUGGUGAAUCUGCUAAUUCUGCUUU [G58U G68U] | 0.966
GGGGGCCACAGCAGAAGCGUUCACGUCGCGGCCCCUGUCAGAUUCUGGUGAAUCUGCUAACUCUGCUGU [G58U U61C] | 0.892
GGGGGCCACAGCAGAAGCGUUCACGUCGCGGCCCCUGUCAGAUUCUGGUGAAUCUGCUAAGUCUGCUGU [G58U U61G] | 0.908
GGGGGCCACAGCAGAAGCGUUCACGUCGCGGCCCCUGUCAGAUUCUGGUGAAUCUGCUAAUACUGCUGU [G58U U62A] | 0.958
GGGGGCCACAGCAGAAGCGUUCACGUCGCGGCCCCUGUCAGAUUCUGGUGAAUCUGCUAAUCCUGCUGU [G58U U62C] | 0.953
GGGGGCCACAGCAGAAGCGUUCACGUCGCGGCCCCUGUCAGAUUCUGGUGAAUCUGCUAAUGCUGCUGU [G58U U62G] | 1.01
GGGGGCCACAGCAGAAGCGUUCACGUCGCGGCCCCUGUCAGAUUCUGGUGAAUCUGCUAAUUCAGCUGU [G58U U64A] | 0.956
GGGGGCCACAGCAGAAGCGUUCACGUCGCGGCCCCUGUCAGAUUCUGGUGAAUCUGCUAAUUCCGCUGU [G58U U64C] | 0.959
GGGGGCCACAGCAGAAGCGUUCACGUCGCGGCCCCUGUCAGAUUCUGGUGAAUCUGCUAAUUCGGCUGU [G58U U64G] | 0.971
GGGGGCCACAGCAGAAGCGUUCACGUCGCGGCCCCUGUCAGAUUCUGGUGAAUCUGCUAAUUCUGCAGU [G58U U67A] | 0.982
GGGGGCCACAGCAGAAGCGUUCACGUCGCGGCCCCUGUCAGAUUCUGGUGAAUCUGCUAAUUCUGCCGU [G58U U67C] | 1.01
GGGGGCCACAGCAGAAGCGUUCACGUCGCGGCCCCUGUCAGAUUCUGGUGAAUCUGCUAAUUCUGCGGU [G58U U67G] | 1.02
GGGGGCCACAGCAGAAGCGUUCACGUCGCGGCCCCUGUCAGAUUCUGGUGAAUCUGCUAAUUCUGCUGG [G58U U69G] | 1.03
GGGGGCCACAGCAGAAGCGUUCACGUCGCGGCCCCUGUCAGAUUCUGGUGAAUCUGCGCCUUCUGCUGU [A59C A60C] | 0.38
GGGGGCCACAGCAGAAGCGUUCACGUCGCGGCCCCUGUCAGAUUCUGGUGAAUCUGCGCGUUCUGCUGU [A59C A60G] | 0.535
GGGGGCCACAGCAGAAGCGUUCACGUCGCGGCCCCUGUCAGAUUCUGGUGAAUCUGCGCAUUAUGCUGU [A59C C63A] | 0.43
GGGGGCCACAGCAGAAGCGUUCACGUCGCGGCCCCUGUCAGAUUCUGGUGAAUCUGCGCAUUCUGAUGU [A59C C66A] | 0.365
GGGGGCCACAGCAGAAGCGUUCACGUCGCGGCCCCUGUCAGAUUCUGGUGAAUCUGCGCAUUCUGGUGU [A59C C66G] | 0.441
GGGGGCCACAGCAGAAGCGUUCACGUCGCGGCCCCUGUCAGAUUCUGGUGAAUCUGCGCAUUCUCCUGU [A59C G65C] | 0.374

Variant | self-cleavage
GGGGGCCACAGCAGAAGCGUUCACGUCGCGGCCCCUGUCAGAUUCUGGUGAAUCUGCGCAUUCUGCUAU [A59C G68A] | 0.908
GGGGGCCACAGCAGAAGCGUUCACGUCGCGGCCCCUGUCAGAUUCUGGUGAAUCUGCGCAUUCUGCUUU [A59C G68U] | 0.939
GGGGGCCACAGCAGAAGCGUUCACGUCGCGGCCCCUGUCAGAUUCUGGUGAAUCUGCGCACUCUGCUGU [A59C U61C] | 0.446
GGGGGCCACAGCAGAAGCGUUCACGUCGCGGCCCCUGUCAGAUUCUGGUGAAUCUGCGCAUCCUGCUGU [A59C U62C] | 0.407
GGGGGCCACAGCAGAAGCGUUCACGUCGCGGCCCCUGUCAGAUUCUGGUGAAUCUGCGCAUGCUGCUGU [A59C U62G] | 0.423
GGGGGCCACAGCAGAAGCGUUCACGUCGCGGCCCCUGUCAGAUUCUGGUGAAUCUGCGCAUUCAGCUGU [A59C U64A] | 0.471
GGGGGCCACAGCAGAAGCGUUCACGUCGCGGCCCCUGUCAGAUUCUGGUGAAUCUGCGCAUUCGGCUGU [A59C U64G] | 0.633
GGGGGCCACAGCAGAAGCGUUCACGUCGCGGCCCCUGUCAGAUUCUGGUGAAUCUGCGCAUUCUGCAGU [A59C U67A] | 0.689
GGGGGCCACAGCAGAAGCGUUCACGUCGCGGCCCCUGUCAGAUUCUGGUGAAUCUGCGCAUUCUGCCGU [A59C U67C] | 0.806
GGGGGCCACAGCAGAAGCGUUCACGUCGCGGCCCCUGUCAGAUUCUGGUGAAUCUGCGCAUUCUGCUGA [A59C U69A] | 0.813
GGGGGCCACAGCAGAAGCGUUCACGUCGCGGCCCCUGUCAGAUUCUGGUGAAUCUGCGCAUUCUGCUGC [A59C U69C] | 0.934
GGGGGCCACAGCAGAAGCGUUCACGUCGCGGCCCCUGUCAGAUUCUGGUGAAUCUGCGCAUUCUGCUGG [A59C U69G] | 0.824
GGGGGCCACAGCAGAAGCGUUCACGUCGCGGCCCCUGUCAGAUUCUGGUGAAUCUGCGGGUUCUGCUGU [A59G A60G] | 0.533
GGGGGCCACAGCAGAAGCGUUCACGUCGCGGCCCCUGUCAGAUUCUGGUGAAUCUGCGGUUUCUGCUGU [A59G A60U] | 0.352
GGGGGCCACAGCAGAAGCGUUCACGUCGCGGCCCCUGUCAGAUUCUGGUGAAUCUGCGGAUUAUGCUGU [A59G C63A] | 0.857
GGGGGCCACAGCAGAAGCGUUCACGUCGCGGCCCCUGUCAGAUUCUGGUGAAUCUGCGGAUUGUGCUGU [A59G C63G] | 0.691
GGGGGCCACAGCAGAAGCGUUCACGUCGCGGCCCCUGUCAGAUUCUGGUGAAUCUGCGGAUUCUGAUGU [A59G C66A] | 0.779
GGGGGCCACAGCAGAAGCGUUCACGUCGCGGCCCCUGUCAGAUUCUGGUGAAUCUGCGGAUUCUGGUGU [A59G C66G] | 0.893
GGGGGCCACAGCAGAAGCGUUCACGUCGCGGCCCCUGUCAGAUUCUGGUGAAUCUGCGGAUUCUCCUGU [A59G G65C] | 0.512
GGGGGCCACAGCAGAAGCGUUCACGUCGCGGCCCCUGUCAGAUUCUGGUGAAUCUGCGGAUUCUUCUGU [A59G G65U] | 0.694
GGGGGCCACAGCAGAAGCGUUCACGUCGCGGCCCCUGUCAGAUUCUGGUGAAUCUGCGGAUUCUGCUAU [A59G G68A] | 1
GGGGGCCACAGCAGAAGCGUUCACGUCGCGGCCCCUGUCAGAUUCUGGUGAAUCUGCGGAUUCUGCUUU [A59G G68U] | 1.02
GGGGGCCACAGCAGAAGCGUUCACGUCGCGGCCCCUGUCAGAUUCUGGUGAAUCUGCGGACUCUGCUGU [A59G U61C] | 0.785
GGGGGCCACAGCAGAAGCGUUCACGUCGCGGCCCCUGUCAGAUUCUGGUGAAUCUGCGGAUCCUGCUGU [A59G U62C] | 0.717
GGGGGCCACAGCAGAAGCGUUCACGUCGCGGCCCCUGUCAGAUUCUGGUGAAUCUGCGGAUGCUGCUGU [A59G U62G] | 0.944
GGGGGCCACAGCAGAAGCGUUCACGUCGCGGCCCCUGUCAGAUUCUGGUGAAUCUGCGGAUUCAGCUGU [A59G U64A] | 0.861

Variant | self-cleavage
GGGGGCCACAGCAGAAGCGUUCACGUCGCGGCCCCUGUCAGAUUCUGGUGAAUCUGCGGAUUCCGCUGU [A59G U64C] | 0.873
GGGGGCCACAGCAGAAGCGUUCACGUCGCGGCCCCUGUCAGAUUCUGGUGAAUCUGCGGAUUCUGCAGU [A59G U67A] | 0.991
GGGGGCCACAGCAGAAGCGUUCACGUCGCGGCCCCUGUCAGAUUCUGGUGAAUCUGCGGAUUCUGCCGU [A59G U67C] | 0.976
GGGGGCCACAGCAGAAGCGUUCACGUCGCGGCCCCUGUCAGAUUCUGGUGAAUCUGCGGAUUCUGCGGU [A59G U67G] | 1.03
GGGGGCCACAGCAGAAGCGUUCACGUCGCGGCCCCUGUCAGAUUCUGGUGAAUCUGCGGAUUCUGCUGA [A59G U69A] | 1.04
GGGGGCCACAGCAGAAGCGUUCACGUCGCGGCCCCUGUCAGAUUCUGGUGAAUCUGCGGAUUCUGCUGG [A59G U69G] | 1.07
GGGGGCCACAGCAGAAGCGUUCACGUCGCGGCCCCUGUCAGAUUCUGGUGAAUCUGCGUCUUCUGCUGU [A59U A60C] | 0.343
GGGGGCCACAGCAGAAGCGUUCACGUCGCGGCCCCUGUCAGAUUCUGGUGAAUCUGCGUGUUCUGCUGU [A59U A60G] | 0.56
GGGGGCCACAGCAGAAGCGUUCACGUCGCGGCCCCUGUCAGAUUCUGGUGAAUCUGCGUUUUCUGCUGU [A59U A60U] | 0.312
GGGGGCCACAGCAGAAGCGUUCACGUCGCGGCCCCUGUCAGAUUCUGGUGAAUCUGCGUAUUGUGCUGU [A59U C63G] | 0.545
GGGGGCCACAGCAGAAGCGUUCACGUCGCGGCCCCUGUCAGAUUCUGGUGAAUCUGCGUAUUUUGCUGU [A59U C63U] | 0.734
GGGGGCCACAGCAGAAGCGUUCACGUCGCGGCCCCUGUCAGAUUCUGGUGAAUCUGCGUAUUCUGUUGU [A59U C66U] | 0.775
GGGGGCCACAGCAGAAGCGUUCACGUCGCGGCCCCUGUCAGAUUCUGGUGAAUCUGCGUAUUCUACUGU [A59U G65A] | 0.531
GGGGGCCACAGCAGAAGCGUUCACGUCGCGGCCCCUGUCAGAUUCUGGUGAAUCUGCGUAUUCUCCUGU [A59U G65C] | 0.497
GGGGGCCACAGCAGAAGCGUUCACGUCGCGGCCCCUGUCAGAUUCUGGUGAAUCUGCGUAUUCUUCUGU [A59U G65U] | 0.329
GGGGGCCACAGCAGAAGCGUUCACGUCGCGGCCCCUGUCAGAUUCUGGUGAAUCUGCGUAUUCUGCUCU [A59U G68C] | 0.941
GGGGGCCACAGCAGAAGCGUUCACGUCGCGGCCCCUGUCAGAUUCUGGUGAAUCUGCGUAAUCUGCUGU [A59U U61A] | 0.443
GGGGGCCACAGCAGAAGCGUUCACGUCGCGGCCCCUGUCAGAUUCUGGUGAAUCUGCGUACUCUGCUGU [A59U U61C] | 0.358
GGGGGCCACAGCAGAAGCGUUCACGUCGCGGCCCCUGUCAGAUUCUGGUGAAUCUGCGUAGUCUGCUGU [A59U U61G] | 0.512
GGGGGCCACAGCAGAAGCGUUCACGUCGCGGCCCCUGUCAGAUUCUGGUGAAUCUGCGUAUACUGCUGU [A59U U62A] | 0.536
GGGGGCCACAGCAGAAGCGUUCACGUCGCGGCCCCUGUCAGAUUCUGGUGAAUCUGCGUAUCCUGCUGU [A59U U62C] | 0.546
GGGGGCCACAGCAGAAGCGUUCACGUCGCGGCCCCUGUCAGAUUCUGGUGAAUCUGCGUAUGCUGCUGU [A59U U62G] | 0.394
GGGGGCCACAGCAGAAGCGUUCACGUCGCGGCCCCUGUCAGAUUCUGGUGAAUCUGCGUAUUCAGCUGU [A59U U64A] | 0.459
GGGGGCCACAGCAGAAGCGUUCACGUCGCGGCCCCUGUCAGAUUCUGGUGAAUCUGCGUAUUCCGCUGU [A59U U64C] | 0.558
GGGGGCCACAGCAGAAGCGUUCACGUCGCGGCCCCUGUCAGAUUCUGGUGAAUCUGCGUAUUCGGCUGU [A59U U64G] | 0.729
GGGGGCCACAGCAGAAGCGUUCACGUCGCGGCCCCUGUCAGAUUCUGGUGAAUCUGCGUAUUCUGCAGU [A59U U67A] | 0.805
